Reference: paper doi:10.1101/2025.07.06.663161 (bioRxiv, 2025)

Biological target: the molecule itself
Test: atomic force microscopy

Protein	binding result
Recombinant wild-type Cdc19, Strep-tagged (SUMO tag cleaved off) (natural protein) MSRLERLTSLNVVAGSDLRRTSIIGTIGPKTNNPETLVALRKAGLNIVRMNFSHGSYEYHKSVIDNARKSEELYPGRPLAIALDTKGPEIRTGTTTNDVDYPIPPNHEMIFTTDDKYAKACDDKIMYVDYKNITKVISAGRIIYVDDGVLSFQVLEVVDDKTLKVKALNAGKICSHKGVNLPGTDVDLPALSEKDKEDLRFGVKNGVHMVFASFIRTANDVLTIREVLGEQGKDVKIIVKIENQQGVNNFDEILKVTDGVMVARGDLGIEIPAPEVLAVQKKLIAKSNLAGKPVICATQMLESMTYNPRPTRAEVSDVGNAILDGADCVMLSGETAKGNYPINAVTTMAETAVIAEQAIAYLPNYDDMRNCTPKPTSTTETVAASAVAAVFEQKAKAIIVLSTSGTTPRLVSKYRPNCPIILVTRCPRAARFSHLYRGVFPFVFEKEPVSDWTDDVEARINFGIEKAKEFGILKKGDTYVSIQGFKAGAGHSNTLQVSTV	binds
Recombinant phosphomimicking Cdc19-3E (S56E, S70E, S175E), Strep-tagged (SUMO tag cleaved off) (natural protein) MSRLERLTSLNVVAGSDLRRTSIIGTIGPKTNNPETLVALRKAGLNIVRMNFSHGEYEYHKSVIDNARKEEELYPGRPLAIALDTKGPEIRTGTTTNDVDYPIPPNHEMIFTTDDKYAKACDDKIMYVDYKNITKVISAGRIIYVDDGVLSFQVLEVVDDKTLKVKALNAGKICEHKGVNLPGTDVDLPALSEKDKEDLRFGVKNGVHMVFASFIRTANDVLTIREVLGEQGKDVKIIVKIENQQGVNNFDEILKVTDGVMVARGDLGIEIPAPEVLAVQKKLIAKSNLAGKPVICATQMLESMTYNPRPTRAEVSDVGNAILDGADCVMLSGETAKGNYPINAVTTMAETAVIAEQAIAYLPNYDDMRNCTPKPTSTTETVAASAVAAVFEQKAKAIIVLSTSGTTPRLVSKYRPNCPIILVTRCPRAARFSHLYRGVFPFVFEKEPVSDWTDDVEARINFGIEKAKEFGILKKGDTYVSIQGFKAGAGHSNTLQVSTV	binds
